{"source": "patent US20080293634A1", "about": "(WASHINGTON STATE UNIVERSITY RESEARCH FOUNDATION, published 2008)", "binders": {"B1": {"name": "Norleual (Nle-Tyr-Leu-ψ-(CH2-NH2)-His-Pro-Phe) (peptide)", "peptide": "[Nle]YLHPF", "modifications": "not fully specified; printed as Nle-Tyr-Leu-ψ-(CH2-NH2)-His-Pro-Phe; also: reduced peptide bond ψ(CH2-NH) between Leu3 and His4", "notes": "Synthesized by Syngene and purified by reverse phase HPLC; Peptidomimetic hexapeptide; also called Compound 2; COMPOUND 2"}}, "key": {"[1]": {"target": "T1, c-Met receptor on mouse liver plasma membranes (mouse, UniProt P16056 25-1379)", "T1 construct": "whole, on cells; Membrane preparation from mouse liver", "T1 sequence (P16056 25-1379)": "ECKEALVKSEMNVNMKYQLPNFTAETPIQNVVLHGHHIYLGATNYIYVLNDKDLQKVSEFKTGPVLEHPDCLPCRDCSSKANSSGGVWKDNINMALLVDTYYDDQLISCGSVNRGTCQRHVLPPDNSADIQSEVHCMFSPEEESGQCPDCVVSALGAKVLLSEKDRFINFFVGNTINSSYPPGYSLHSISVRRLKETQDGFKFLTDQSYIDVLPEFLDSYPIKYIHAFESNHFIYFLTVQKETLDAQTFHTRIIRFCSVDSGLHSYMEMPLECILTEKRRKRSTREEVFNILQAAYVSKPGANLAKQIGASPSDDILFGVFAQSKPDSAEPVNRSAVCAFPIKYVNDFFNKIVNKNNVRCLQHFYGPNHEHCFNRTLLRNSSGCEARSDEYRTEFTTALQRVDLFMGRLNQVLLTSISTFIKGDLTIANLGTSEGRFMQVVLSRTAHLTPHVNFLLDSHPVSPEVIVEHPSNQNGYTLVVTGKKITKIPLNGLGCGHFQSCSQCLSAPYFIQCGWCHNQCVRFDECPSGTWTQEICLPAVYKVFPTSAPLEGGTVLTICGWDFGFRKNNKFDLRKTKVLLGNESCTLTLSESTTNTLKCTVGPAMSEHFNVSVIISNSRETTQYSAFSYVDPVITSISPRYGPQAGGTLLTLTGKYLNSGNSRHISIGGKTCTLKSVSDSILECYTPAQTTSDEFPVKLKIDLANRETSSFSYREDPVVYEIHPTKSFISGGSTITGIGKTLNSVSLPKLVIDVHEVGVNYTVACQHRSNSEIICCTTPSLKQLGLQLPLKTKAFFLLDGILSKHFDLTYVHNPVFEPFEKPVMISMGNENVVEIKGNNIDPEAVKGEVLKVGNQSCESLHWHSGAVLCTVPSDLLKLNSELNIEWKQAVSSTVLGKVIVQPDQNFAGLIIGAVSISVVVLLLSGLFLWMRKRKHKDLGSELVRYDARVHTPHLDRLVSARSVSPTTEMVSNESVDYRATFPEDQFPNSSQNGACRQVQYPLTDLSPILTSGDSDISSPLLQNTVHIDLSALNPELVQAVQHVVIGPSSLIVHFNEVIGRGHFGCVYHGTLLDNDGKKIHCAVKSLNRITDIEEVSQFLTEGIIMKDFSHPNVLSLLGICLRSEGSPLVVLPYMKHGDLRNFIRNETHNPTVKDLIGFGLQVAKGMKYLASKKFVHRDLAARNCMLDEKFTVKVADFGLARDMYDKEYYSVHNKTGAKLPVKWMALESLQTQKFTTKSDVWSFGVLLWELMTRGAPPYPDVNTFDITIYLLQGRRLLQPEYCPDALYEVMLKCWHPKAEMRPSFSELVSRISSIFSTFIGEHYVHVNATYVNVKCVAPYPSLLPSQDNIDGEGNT", "test": "competition with 50 pM ^125I-HGF for binding to mouse liver plasma membranes; mean ±SEM, n=3", "description": "Mouse liver plasma membranes were incubated with […] ¹²⁵I-HGF and the indicated concentrations of HGF or Norleual. Results are presented as percent of specific ¹²⁵I-HGF binding and error bars indicate±standard error of mean (SEM). Competition experiments included quadruplicate data points and each experiment was repeated in triplicate.\n(§1) ¹²⁵I-HGF binding assay. Mouse liver was homogenized in hypotonic buffer fortified with 0.1% bovine serum albumin as described by Hanesworth et al. (1993). 600 μg of membrane protein was incubated with 50 pM ¹²⁵I-HGF with various concentrations of HGF or Norleual in a total volume of 100 μl phosphate-buffered saline (PBS) fortified with 0.1% BSA. Binding occurred for one hour on ice. Membranes were pelleted by centrifugation and washed twice with incubation buffer. Radioactivity was counted with a gamma counter (Isomedic 10/880, ICN, Cost Mesa, Calif., USA). Specific binding was calculated and normalized to control counts. Competition fits by Prism software (GraphicPad, San Diego, Calif.) were performed according to the manufacturer's instructions.\nMaterials and methods were as described in Example 1. In separate tests of unlabeled competitors, both Norleual and HGF competed with ¹²⁵I-HGF for high affinity binding to mouse liver plasma membranes (FIGS. 2A, 2B). […]"}, "[2]": {"target": "T1, c-Met receptor on mouse liver plasma …", "test": "competition with ^125I-HGF at various concentrations of COMPOUND 2 (mouse liver membranes)", "description": "as §1\nBriefly, COMPOUND 2 was iodinated with […] and bound and cross-linked to HEK cell membranes with or without 1 nM COMPOUND 2 or 1 nM hepatocyte growth factor. Following solubilization and separation of free label by molecular sieving, total radioactive counts were determined. The ability of the ligand COMPOUND 2 to compete with hepatocyte growth factor binding to the c-Met receptor was also tested using mouse liver plasma membranes and intact HEK293 cells. […] Membranes were pelleted and unbound label was removed by washing, and total radioactive counts were determined. […]"}, "[3]": {"target": "T2, c-Met receptor on human cells (HEK293 cells and membranes, HUVEC) (human, UniProt P08581 25-1390)", "T2 construct": "Endogenous receptor of human embryonic kidney HEK293 cells, HEK293 membranes and HUVEC; also called hepatocyte growth factor receptor; HGF-R", "T2 sequence (P08581 other isoform, or with tags, fused parts or gaps limits assumed)": "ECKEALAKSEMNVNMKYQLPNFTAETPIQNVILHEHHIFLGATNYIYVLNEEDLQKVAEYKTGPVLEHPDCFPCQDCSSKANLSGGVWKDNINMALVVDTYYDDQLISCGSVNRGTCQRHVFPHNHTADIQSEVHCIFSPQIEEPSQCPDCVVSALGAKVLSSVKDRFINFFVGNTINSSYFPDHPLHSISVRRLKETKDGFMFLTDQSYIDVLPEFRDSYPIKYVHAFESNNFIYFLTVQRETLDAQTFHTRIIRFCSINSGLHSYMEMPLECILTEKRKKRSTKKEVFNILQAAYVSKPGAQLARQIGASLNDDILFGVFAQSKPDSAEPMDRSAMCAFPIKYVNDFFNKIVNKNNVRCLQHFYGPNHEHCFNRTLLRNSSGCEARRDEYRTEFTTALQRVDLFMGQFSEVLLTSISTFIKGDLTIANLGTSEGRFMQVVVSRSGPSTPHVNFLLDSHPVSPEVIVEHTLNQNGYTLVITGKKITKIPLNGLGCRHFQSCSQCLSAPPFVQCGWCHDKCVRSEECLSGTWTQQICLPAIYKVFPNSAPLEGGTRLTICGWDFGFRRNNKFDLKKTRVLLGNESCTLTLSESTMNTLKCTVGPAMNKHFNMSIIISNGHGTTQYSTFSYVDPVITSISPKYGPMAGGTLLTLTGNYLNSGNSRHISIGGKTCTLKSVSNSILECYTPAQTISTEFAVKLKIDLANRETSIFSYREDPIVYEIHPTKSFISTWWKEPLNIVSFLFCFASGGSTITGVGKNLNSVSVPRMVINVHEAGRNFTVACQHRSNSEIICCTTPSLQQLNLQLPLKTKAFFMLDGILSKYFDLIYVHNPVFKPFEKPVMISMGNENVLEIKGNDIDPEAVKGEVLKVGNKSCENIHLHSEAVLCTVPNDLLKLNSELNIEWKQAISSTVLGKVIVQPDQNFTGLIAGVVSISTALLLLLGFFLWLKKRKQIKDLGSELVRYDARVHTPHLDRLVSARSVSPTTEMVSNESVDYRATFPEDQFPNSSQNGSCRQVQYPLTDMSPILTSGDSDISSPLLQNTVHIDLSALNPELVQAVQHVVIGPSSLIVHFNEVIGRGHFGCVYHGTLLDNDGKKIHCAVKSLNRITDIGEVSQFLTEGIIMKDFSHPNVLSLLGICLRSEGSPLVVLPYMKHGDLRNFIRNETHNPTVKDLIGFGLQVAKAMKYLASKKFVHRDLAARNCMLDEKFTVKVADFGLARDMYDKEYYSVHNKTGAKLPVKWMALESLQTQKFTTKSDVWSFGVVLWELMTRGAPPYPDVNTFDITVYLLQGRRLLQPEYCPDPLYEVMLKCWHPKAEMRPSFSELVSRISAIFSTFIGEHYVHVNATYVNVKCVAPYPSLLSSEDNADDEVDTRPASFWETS", "test": "unlabeled Norleual against ^125I-Norleual on HEK293 membranes; two-site competition fit, low-affinity site", "description": "(§2) FIG. 3C: ¹²⁵I-Norleual was bound to HEK membranes in the presence or absence of 1.5 nM HGF (n=8) or 1 μM Norleual (n=6). Total binding is reported as percent control (n=10), (*p<0.001). Error bars indicate±SD. […] Error bars indicate SD and data points were performed in duplicate.\n(§3) ¹²⁵I-Norleual binding assay. HEK293 cells were grown to confluency in DMEM fortified with 10% FBS. Media was aspirated and cells were washed twice with ice-cold PBS. Cells were lysed with hypotonic buffer and homogenized as described by Zhang et al. (1999, J. Pharmacol. Exp. Ther. 289: 1075-1083; 2003 J. Cell Biochem. 88: 408-417). 450 μg of membrane protein was incubated with 1.5 nM ¹²⁵I-Norleual with or without Norleual or HGF in a total volume of 250 μl PBS, 0.1% BSA. Tubes were spun and binding was carried out for 60 minutes at RT. Bound and free ligands were separated by vacuum filtration using (Brandel Cell Harvester, Schleicher & Schull, Keene, N.H., USA) 32 glass filters. Radioactivity retained by the filters was measured using a gamma counter. […] Data analysis was preformed using Prism software (GraphicPad) per the supplier's recommendations."}, "[4]": {"target": "T2, c-Met receptor on human cells (HEK293 …)", "test": "unlabeled Norleual against ^125I-Norleual on HEK293 membranes; two-site competition fit, high-affinity site", "description": "as §2, §3"}}, "note": "Non-standard residues stand in square brackets, D forms with d. No end group written: not given here. Nle = CCCC[C@H](N)C(=O)O", "data": [{"binder": "B1", "values": [{"measurement": "IC50", "setting": "[1]", "value": 0.0031, "unit": "nM"}, {"measurement": "Kd", "setting": "[2]", "value": "~0.003", "unit": "nM"}, {"measurement": "IC50", "setting": "[3]", "value": 7.4, "unit": "nM"}, {"measurement": "IC50", "setting": "[4]", "value": 0.048, "unit": "nM"}]}]}
